Experimental data published in the DeepSol protein solubility set.

experiment: soluble on expression in E. coli; label from the status in PepcDB or PDB records

Sequence | soluble on expression in E. coli
MGHHHHHHSHMGGLPMISASLQQRKTRTRRSMLFVPGANAAMVSNSFIYPADALMFDLEDSVALREKDTARRMVYHALQHPLYRDIETIVRVNALDSEWGVNDLEAVVRGGADVVRLPKTDTAQDVLDIEKEILRIEKACGREPGSTGLLAAIESPLGITRAVEIAHASERLIGIALGAEDYVRNLRTERSPEGTELLFARCSILQAARSAGIQAFDTVYSDANNEAGFLQEAAHIKQLGFDGKSLINPRQIDLLHNLYAPTQKEVDHARRVVEAAEAAAREGLGVVSLNGKMVDGPVIDRARLVLSRAELSGIREE | not soluble
MANAADDRRPKYQRIADTLREAIRSGEYGPGDRLPGENDLMATHGVARMTARQALSVLRDEGVAEARKGAGVFVREFRPLRRRGIQRLARQQWGNGRSIWSADIEDRSLDVDQVTVSEEAAPDGVAAVLDLADGETVCVRRRRFVLDGKPVLLATSYLPAALVAGSAITQEDTGKGGTYARLAELGHGPVHFREEIRSRMPSKAEASQLSVAAGTPVILICRTAFTDEGRAVEINEMTLDAASYVLEYDFDA | not soluble
STTIYDLKKQKDKLLKFYAESDEQILMKNRKTLHKAKNEDLDRVLKEWIRQRRSEHMPLNGMLIMKQAKIYHNELKIEGNCEYSTGWLQKFKKRHGIKFLKTCGNKASAGHEATEKFTGKFSNDDEQDGNFEGFSMSSEKKIMSDLLTYTKNIHPETVSKLEEEDIKDVFNSNNEAPVVHSLSNGEVTKMVLNQDDHDDNDNEDDVNTAEKVPIDDMVKMCDGLIKGLEQHAFITEQEIMSVYKIKERLLRQKASLMRQMTLKETFKKAIQRNASSSLQDPLLGPSTASDASSHLKIK | soluble
MGSDKIHHHHHHMYKWHNVFQPIFQIDQNMNHKVDHYEMLLRDENDQFPNHDFFRIISTEEDNQKWIQIEEKSLKNLFSLHPNIHVNLNVEPIQFAYPSVWEFLRRIYDKYGQKVIIEITERQLQAGNIGNRQFDCAFQRINDIGFKIALDDVDSGSNSFSFVNHHVNQISVIKLSLLIFDNVSSGTTISFIDSWAAFAKEKHLDLVIEAVRSKEIAKRFAGNKHIFQQGYYWEKALKLEDIY | not soluble
MVDFKLSPSQLEARRHAQAFANTVLTKASAEYSTQKDQLSRFQATRPFYREAVRHGLIKAQVPIPLGGTMESLVHESIILEELFAVEPATSITIVATALGLMPVILCDSPSLQEKFLKPFISGEGEPLASLMHSEPNGTANWLQKGGPGLQTTARKVGNEWVISGEKLWPSNSGGWDYKGADLACVVCRVSDDPSKPQDPNVDPATQIAVLLVTRETIANNKKDAYQILGEPELAGHITTSGPHTRFTEFHVPHENLLCTPGLKAQGLVETAFAMSAALVGAMAIGTARAAFEEALVFAKSDTRGGSKHIIEHQSVADKLIDCKIRLETSRLLVWKAVTTLEDEALEWKVKLEMAMQTKIYTTDVAVECVIDAMKAVGMKSYAKDMSFPRLLNEVMCYPLFDGGNIGLKRRQMQRVMALEDYEPWAATYGSSKVDKSRL | soluble
MGSDKIHHHHHHMKNRFLIICTVLFLSSCLAYGQEQASVTNDFSENKQGCIQHPWQGKKVGYIGDSITDPNCYGDNIKKYWDFLKEWLGITPFVYGISGRQWDDVPRQAEKLKKEHGGEVDAILVFMGTNDYNSSVPIGEWFTEQEEQVLSAHGEMKKMVTRKKRTPVMTQDTYRGRINIGITQLKKLFPDKQIVLLTPLHRSLANFGDKNVQPDESYQNGCGEYIDAYVQAIKEAGNIWGIPVIDFNAVTGMNPMVEEQLIYFYDAGYDRLHPDTKGQERMARTLMYQLLALPVAF | not soluble
MCLIVFAWRPGHALPLIVAANRDEFYARPTQPLAAWEDAPGVHAGRDLEAGGTWLGVGPQGRFAALTNIRDPGQAQGPRSRGELVAAFLQGELGVGAYLDQVASRSGQYSGFNLLVGDGQRLGYLHAREATPRLLKAGVYGLSNAGLDTPWPKLVKARDGLENLLDTPEPHRLLALLADNEPAADGDLPETGVGLATEKLLSSVFIASQNYGTRASTVLIVDDQGQRRLVERSFGPFGGHLGEIELLVLEHHHHHH | soluble
MATNESLKEQLAKRNGRKPAANGNGEPITLKALLASPKVKKRFEEVLDKRAPQFMTSIINLYSNDSGLQKCDPMTVISSAMVAASLDLPIDKNLGYAWIVPYYDRKTKSYRAQFQLGYKGYIQLALRSGQYRYINAIPVRKGELIKWDPLTEEIEIDFEARESDEVIGYAAFFELLNGFRKTVYWRKEDVEAHRQKYSKSGFGWENDWDAMALKTVIKSLLSRWGILSVEMQKAVIEDDEERLNPPADNVVEIEPEKPEVPENDEPVFELPLDVEVEVPFEEDEKDGDDQEG | not soluble
MSEVNIVVNGREAGSKSKGCALCGATWGDYHADFLGEDLFFCCDICAAEFMNMMDEAFKHTARHNVDELHIDGNYQLGRNVLLKNGEDRLRFYVKFGPGAVIKEFKITD | soluble
LFGVTSELSKDGRERIYRVEGQLFYASVEDFMAAFDFREALDRVVIDVSRAHIWDISSVQALDMAVLKFRREGAEVRIVGMNEASETMVDRLAIHDKPGAMDRLVAH | not soluble
MGSDKIHHHHHHMSIYNSIGKQYSQTRVPDIRIVNAIINLLNLPKGSVIADIGAGTGGYSVALANQGLFVYAVEPSIVMRQQAVVHPQVEWFTGYAENLALPDKSVDGVISILAIHHFSHLEKSFQEMQRIIRDGTIVLLTFDIRLAQRIWLYDYFPFLWEDALRFLPLDEQINLLQENTKRRVEAIPFLLPHDLSDLFAAAAWRRPELYLKAEVRAGISSFALANQDLVEKGLELLTADLNNGEWIRKYGEIHHLQEIDIGYRFIYTTLDK | not soluble
MGSDKIHHHHHHMERKTVLVIADLGGCPPHMFYKSAAEKYNLVSFIPRPFAITASHAALIEKYSVAVIKDKDYFKSLADFEHPDSIYWAHEDHNKPEEEVVEQIVKVAEMFGADAITTNNELFIAPMAKACERLGLRGAGVQAAENARDKNKMRDAFNKAGVKSIKNKRVTTLEDFRAALEEIGTPLILKPTYLASSIGVTLITDTETAEDEFNRVNDYLKSINVPKAVTFEAPFIAEEFLQGEYGDWYQTEGYSDYISIEGIMADGEYFPIAIHDKTPQIGFTETSHITPSILDEEAKKKIVEAAKKANEGLGLQNCATHTEIKLMKNREPGLIESAARFAGWNMIPNIKKVFGLDMAQLLLDVLCFGKDADLPDGLLDQEPYYVADCHLYPQHFKQNGQIPETAEDLVIEAIDIPDGLLKGDTEIVSFSAATPGTSVDLTLFEAFNSIAAFELKGSNSQDVAESIRQIQQHAKLTAKYVLPV | not soluble
MSLENKHVTIYDIAERLNLATSTISRALKDHHTISDKTIKKVKKTAEEMGFVPNTLAAGLRGNKTRTIGVLIPTVTQPFLSSLISGIEITAQKSDYTVIIMQSHDSYEEEVNMAKSLYSNRVSGVICSLAMETRDTAHFHQFSNNNIPLVFVDRVPKDYNTFRVVIDNYTAGYKATKHLIEQGCIRIAHLTAGSELGNLYNERKRGYIEALKDHNIEVEEELIINLNSVTYEDGVKASNALFDLKPIPDGLFAPGDILAVSAVQTAKKRGTKVPEEFKVIGFNNDPISQIIDPNLSTITHPAEKMGKAAAEIIIKNLKSSKNDDAKEITFLNTEVLARESSSKEGHHHHHH | soluble
MSLRVTLREVAQEAGVSLKTASNVINHSGRMADATREKVQDVIDRLGYRVNVSARNLNRGKTGFITLAVPSLTAPYLAELANRVIDAARIYGYSVYITTYAEGSAQGARALLRNFNATVSDGMILSISEVEDLDPEDLDVDYPLVCVGARSTHGKADHVTPDDVQEARLAAQYLFDHGATNLAVIGSRTDPEHILELRDAVEGNAQLRMRGIFEACADQGVELDTRLVPNVGQDWTIGSGARMTQRIVDSGIPFDGIVAFNDQLALGALFTLAANGIAVPDRVQVIGFDNNEEAAYFQPPLTTMDSCLDWIAPTAVSRIINRIDGSRTLEPELITTQSRIIARATTRAEGHHHHHH | soluble
MDQFSEPEETQVEQVENPDRNEAGYEVCNQSGENLSVAIAYFDTSIDSYRSEGWWNLDQSKCQFFPNLLDSVDEVYVFAESDQTLWSGDFPFCMQEDAFEYPDANRDRCPSPAYSKGFLKVEVGDAKTWTTLEHHHHHH | soluble
GIFPAEIEDLAQKQVAVDLTQPSRFLLKVLAGANIGAEFHLDSGKTYIVGSDPQVADIVLSDMSISRQHAKIIIGNDNSVLIEDLGSKNGVIVEGRKIEHQSTLSANQVVALGTTLFLLVDYAAPS | soluble
